Test results taken from patent publication US20170137511A1 (CALYPSO BIOTECH, published 2017).

B1: huB-E29-3 (antibody, human IgG1, kappa, V domains shown)
VH: EVRLMASGGGLVQPGGSLRLSCAASEFTFSNYAMSWVRQAPGKGLEWVSTISRGGDYTYYPDSVKGRFTISRDNSKNTLYLQMNSLRAEDTAVYYCARRVSMITGGWAMDYWGQGTLVTVSS
VL: DVVMTQSPLSLPVTLGQPASISCRSSQSIVDITGNTYLEWYQQRPGQSPRLLIYKVFNRFSGVPDRFSGSGSGTDFTLKISRVEAEDVGVYYCFQDSFVPYTFGQGTKLEIKR
notes: Humanized B-E29 variant; human IgG1 (G1m3) / kappa (Km3), produced in CHO cells; also called huVH3/huVL1
B2: huB-E29-13 (antibody, human IgG1, kappa, V domains shown)
VH: EVRLMASGGGLVQPGGSLRLSCAASEFTFSNYAMSWVRQAPGKGLEWVATISRGGDYTYYPDSVKGRFTISRDNSKNTLYLQMNSLRAEDTAVYYCARRVSMITGGWALDYWGQGTLVTVSS
VL: DVVMTQSPLSLPVTLGQPASISCRSSQSIVDITGNTYLEWYQQRPGQSPRLLIYKVFNRFSGVPDRFSGSGSGTDFTLKISRVEAEDVGVYYCFQDSFVPYTFGQGTKLEIKR
notes: Humanized B-E29 variant; human IgG1 (G1m3) / kappa (Km3), produced in CHO cells; also called huVH11/huVL1
B3: huB-E29-8 (antibody, human IgG1, kappa, V domains shown)
VH: EVRLMASGGGLVQPGGSLRLSCAASEFTFSNYAMSWVRQAPGKGLEWVATISRGGDYTYYPDTVKGRFTISRDNSKNTLYLQMNSLRAEDTAVYYCARRVSIITGGWAMDYWGQGTLVTVSS
VL: DVVMTQSPLSLPVTLGQPASISCRSSQSIVDITGNTYLEWYQQRPGQSPRLLIYKVFNRFSGVPDRFSGSGSGTDFTLKISRVEAEDVGVYYCFQDSFVPYTFGQGTKLEIKR
notes: Humanized B-E29 variant; human IgG1 (G1m3) / kappa (Km3), produced in CHO cells; also called huVH6/huVL1
B4: huB-E29-5 (antibody, human IgG1, kappa, V domains shown)
VH: EVRLMASGGGLVQPGGSLRLSCAASEFTFSNYAMSWVRQAPGKGLEWVATISRGGDYTYYPDSVKGRFTISRDNSKNTLYLQMNSLRAEDTAVYYCARRVSMITGGWAMDYWGQGTLVTVSS
VL: DVVMTQSPLSLPVTLGQPASISCRSSQSIVDITGNTYLEWYQQRPGQSPRRLIYKVFNRFSGVPDRFSGSGSGTDFTLKISRVEAEDVGVYYCFQDSFVPYTFGQGTKLEIKR
notes: Humanized B-E29 variant; human IgG1 (G1m3) / kappa (Km3), produced in CHO cells; also called huVH1/huVL3
B5: huB-E29-9 (antibody, human IgG1, kappa, V domains shown)
VH: EVRLMASGGGLVQPGGSLRLSCAASEFTFSNYAMSWVRQAPGKGLEWVATISRGGDYTYYPDTVKGRFTISRDNSKNTLYLQMNSLRAEDTAVYYCARRVSAITGGWAMDYWGQGTLVTVSS
VL: DVVMTQSPLSLPVTLGQPASISCRSSQSIVDITGNTYLEWYQQRPGQSPRLLIYKVFNRFSGVPDRFSGSGSGTDFTLKISRVEAEDVGVYYCFQDSFVPYTFGQGTKLEIKR
notes: Humanized B-E29 variant; human IgG1 (G1m3) / kappa (Km3), produced in CHO cells; also called huVH7/huVL1
B6: huB-E29-15 (antibody, human IgG1, kappa, V domains shown)
VH: EVRLMASGGGLVQPGGSLRLSCAASEFTFSNYAMSWVRQAPGKGLEWVATISRGGDYTYYPDSVKGRFTISRDNSKNTLYLQMNSLRAEDTAVYYCARRVSMITGGWAIDYWGQGTLVTVSS
VL: DVVMTQSPLSLPVTLGQPASISCRSSQSIVDITGNTYLEWYQQRPGQSPRLLIYKVFNRFSGVPDRFSGSGSGTDFTLKISRVEAEDVGVYYCFQDSFVPYTFGQGTKLEIKR
notes: Humanized B-E29 variant; human IgG1 (G1m3) / kappa (Km3), produced in CHO cells; also called huVH13/huVL1
B7: huB-E29-14 (antibody, human IgG1, kappa, V domains shown)
VH: EVRLMASGGGLVQPGGSLRLSCAASEFTFSNYAMSWVRQAPGKGLEWVATISRGGDYTYYPDSVKGRFTISRDNSKNTLYLQMNSLRAEDTAVYYCARRVSMITGGWAFDYWGQGTLVTVSS
VL: DVVMTQSPLSLPVTLGQPASISCRSSQSIVDITGNTYLEWYQQRPGQSPRLLIYKVFNRFSGVPDRFSGSGSGTDFTLKISRVEAEDVGVYYCFQDSFVPYTFGQGTKLEIKR
notes: Humanized B-E29 variant; human IgG1 (G1m3) / kappa (Km3), produced in CHO cells; also called huVH12/huVL1
B8: huB-E29-17 (antibody, human IgG1, kappa, V domains shown)
VH: EVRLMASGGGLVQPGGSLRLSCAASEFTFSNYAMSWVRQAPGKGLEWVATISRGGDYTYYPDTVKGRFTISRDNSKNTLYLQMNSLRAEDTAVYYCARRVSMITGGWAMDYWGQGTLVTVSS
VL: DVVMTQSPLSLPVTLGQPASISCRSSQSIVDITGNTYLEWYQQRPGQSPRLLIYKVFNRFSGVPDRFSGSGSGTDFTLKISRVEAEDVGVYYCFQDSFVPYTFGQGTKLEIKR
notes: Humanized B-E29 variant; human IgG1 (G1m3) / kappa (Km3), produced in CHO cells; also called huVH15/huVL1
B9: huB-E29-6 (antibody, human IgG1, kappa, V domains shown)
VH: EVRLMASGGGLVQPGGSLRLSCAASEFTFSNYAMSWVRQAPGKGLEWVATISRGGDYTYYPDSVKGRFTISRDNSKNTLYLQMNSLRAEDTAVYYCARRVSLITGGWAMDYWGQGTLVTVSS
VL: DVVMTQSPLSLPVTLGQPASISCRSSQSIVDITGNTYLEWYQQRPGQSPRLLIYKVFNRFSGVPDRFSGSGSGTDFTLKISRVEAEDVGVYYCFQDSFVPYTFGQGTKLEIKR
notes: Humanized B-E29 variant; human IgG1 (G1m3) / kappa (Km3), produced in CHO cells; also called huVH4/huVL1

target: recombinant human IL-15 (Prospec cat no. CYT230) (human, UniProt P40933 49-162); assay: ELISA, plate-bound human IL-15; printed as BC50 (half-maximal binding concentration)
Sequence (P40933 other isoform, or with tags, fused parts or gaps): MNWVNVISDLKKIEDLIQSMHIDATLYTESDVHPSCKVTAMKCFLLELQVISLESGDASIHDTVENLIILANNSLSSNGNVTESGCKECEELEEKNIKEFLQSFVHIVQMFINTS
Experimental: (§1) Maxisorp plates were coated with recombinant human IL-15 (Prospec cat no. CYT230) or Rhesus macaque IL-15 (MyBiosource cat. no. MBS948894) at 100 ng/well in carbonate coating buffer for 2 hours at 37° C. Since published sequences of Rhesus macaque and Cynomolgus monkey IL-15 are identical, such recombinant IL-15 protein was referred to as Macaque Monkey IL-15. Tested human IL-15 recombinant protein has a sequence identical to that provided in SEQ ID NO: 1 but with an additional methionine at the N-terminal position as usually done for expressing recombinant proteins in E. Coli. Tested recombinant Macaque Monkey IL-15 was produced in yeast and has a sequence identical to that provided in SEQ ID NO: 4 but with an additional N-terminal His tag.
(§2) The plate was then blocked with 2% normal goat serum for 30 min at 37° C. and washed 6 times with PBS-Tween (0.05% Tween-20 in PBS, v/v). Test antibodies were added to the plate in triplicate at various dilutions in PBS-Tween and the plate was incubated with gentle rocking at room temperature for 2 hours. The plate was then washed 6 times with PBS-Tween and an appropriate dilution of goat anti-human IgG antibody (Millipore cat. no. AP309P) conjugated to horseradish peroxidase (HRP) was added to the plate and left rocking at room temperature for 1 hour. The plate was then washed 6 times with PBS-Tween and incubated with TMB substrate. The reaction was stopped by the addition of 1M H₂SO₄ and read at 450 nm. Dose response curves of absorbance versus concentration were plotted and analyzed to determine half-maximal binding concentrations (BC₅₀) using the Graphpad Prism software. BC₅₀ values expressed as molarity were extrapolated from concentration in ng/ml using a 150 kDa molecular weight value for all antibodies.

EC50	Binder
2.62 nM	B1
3.17 nM	B2
1.79 nM	B3
1.47 nM	B4
1.99 nM	B5
2.53 nM	B6
0.813 nM	B7
2.61 nM	B8
1.84 nM	B9

target: T1, recombinant Macaque Monkey IL-15 (MyBiosource cat. no. MBS948894) (Rhesus macaque / Cynomolgus monkey, UniProt P40221 49-162 (Chlorocebus aethiops entry)); assay: ELISA, plate-bound Macaque Monkey IL-15; printed as BC50 (half-maximal binding concentration)
T1 construct: Produced in yeast; also called Rhesus macaque IL-15; recombinant monkey IL-15; not shown: additional N-terminal His tag
T1 sequence (P40221 49-162): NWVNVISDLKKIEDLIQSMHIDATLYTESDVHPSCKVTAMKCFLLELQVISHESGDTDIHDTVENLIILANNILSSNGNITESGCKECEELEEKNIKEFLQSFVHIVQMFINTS
Experimental: as §1, §2

EC50	Binder
0.453 nM	B4
0.347 nM	B7
